{"source": "paper PMC10107573", "about": "(Nature Communications, 2023)", "binders": {"B1": {"name": "10-5B Fab (Fab, V domains shown)", "VH": "EVQLVESGGGLIQPGGSLRLSCAVSGFTVSRMSWVRQAPGKGLECVSVIYTGGNTDYADSVKGRFTISRDNSKNTLYLQMNSLRAEDTALYYCVRGSGGIHDAFDIWGQGTMVTVSS", "VL": "DIQMTQSPSSVSASVGDRVTITCRASQGISTWLAWYQQKPGKAPKVLINAASGLQSGVPSRFSGSGSGTDFTLTISSLQPEDFATYYCQQAHSFPPTFGPGTKLEIK", "notes": "also called 10-5B Fab fragments"}}, "target": "T1, SARS-CoV-2 Omicron BA.1 spike ectodomain (S trimer) (SARS-CoV-2 Omicron BA.1, S371L | S373P | S375F | S477N | E484A)", "T1 construct": "also called BA.1 S trimer", "test": "cryo-EM structure", "settings": "both partners purified", "data": [{"binder": "B1", "values": [{"measurement": "stoichiometry N", "value": 3, "unit": "Fabs per S trimer"}]}]}
